Changes are numbered by the printed parent chain. Names and notes keep the numbering of the source.
B1: DDR1 residue 413 to cysteine (in the C287S background) (receptor, human, UniProt Q08345 19-913, looked up)
chain: DADMKGHFDPAKCRYALGMQDRTIPDSDISASSSWSDSTAARHSRLESSDGDGAWCPAGSVFPKEEEYLQVDLQRLHLVALVGTQGRHAGGLGKEFSRSYRLRYSRDGRRWMGWKDRWGQEVISGNEDPEGVVLKDLGPPMVARLVRFYPRADRVMSVCLRVELYGCLWRDGLLSYTAPVGQTMYLSEAVYLNDSTYDGHTVGGLQYGGLGQLADGVVGLDDFRKSQELRVWPGYDYVGWSNHSFSSGYVEMEFEFDRLRAFQAMQVHSNNMHTLGARLPGGVECRFRRGPAMAWEGEPMRHNLGGNLGDPRARAVSVPLGGRVARFLQCRFLFAGPWLLFSEISFISDVVNNSSPALGGTFPPAPWWPPGPPPTNFSSLELEPRGQQPVAKAECSPTAILIGCLVAIILLLLLIIALMLWRLHWRRLLSKAERRVLEEELTVHLSVPGDTILINNRPGPREPPPYQEPRPRGNPPHSAPCVPNGSALLLSNPAYRLLLATYARPPRGPGPPTPAWAKPTNTQAYSGDYMEPEKPGAPLLPPPPQNSVPHYAEADIVTLQGVTGGNTYAVPALPPGAVGDGPPRVDFPRSRLRFKEKLGEGQFGEVHLCEVDSPQDLVSLDFPLNVRKGHPLLVAVKILRPDATKNARNDFLKEVKIMSRLKDPNIIRLLGVCVQDDPLCMITDYMENGDLNQFLSAHQLEDKAAEGAPGDGQAAQGPTISYPMLLHVAAQIASGMRYLATLNFVHRDLATRNCLVGENFTIKIADFGMSRNLYAGDYYRVQGRAVLPIRWMAWECILMGKFTTASDVWAFGVTLWEVLMLCRAQPFGQLTDEQVIENAGEFFRDQGRQVYLSRPPACPQGLYELMLRCWSRESEQRPPFSQLHRFLAEDALNTV
notes: discoidin domain receptor 1, isoform DDR1b, human; full-length cDNA in pRK5; The text gives only the range V408C to A417C (10 single mutants); also called one of the 10 mutants V408C to A417C; source: HEK293, transiently transfected, in lysate
B2: DDR1 residue 414 to cysteine (in the C287S background) (receptor, human, UniProt Q08345 19-913, looked up)
chain: B1 chain with C395G, S396C
notes: as for B1

Biological target: the molecule itself
Experiment: cross-linking; disulfide cross-linking of introduced cysteines in transiently transfected HEK293 cells, untreated or with 10 ug/ml collagen I for 90 min at 37 °C; lysis in 1% Nonidet P-40 buffer with NEM; nonreducing SDS-PAGE on 5% gels, Western blot with anti-DDR1; efficiency as percent dimeric of total DDR1

Row | Protein | dimerization efficiency (percent dimeric of total DDR1) [%]
1 | B1 | > 70
2 | B2 | > 70
